Values quoted from earlier work in PMC2830912.

Target: Pol III alpha subunit (Escherichia coli) (UniProt P10443)
Sequence (P10443 whole entry): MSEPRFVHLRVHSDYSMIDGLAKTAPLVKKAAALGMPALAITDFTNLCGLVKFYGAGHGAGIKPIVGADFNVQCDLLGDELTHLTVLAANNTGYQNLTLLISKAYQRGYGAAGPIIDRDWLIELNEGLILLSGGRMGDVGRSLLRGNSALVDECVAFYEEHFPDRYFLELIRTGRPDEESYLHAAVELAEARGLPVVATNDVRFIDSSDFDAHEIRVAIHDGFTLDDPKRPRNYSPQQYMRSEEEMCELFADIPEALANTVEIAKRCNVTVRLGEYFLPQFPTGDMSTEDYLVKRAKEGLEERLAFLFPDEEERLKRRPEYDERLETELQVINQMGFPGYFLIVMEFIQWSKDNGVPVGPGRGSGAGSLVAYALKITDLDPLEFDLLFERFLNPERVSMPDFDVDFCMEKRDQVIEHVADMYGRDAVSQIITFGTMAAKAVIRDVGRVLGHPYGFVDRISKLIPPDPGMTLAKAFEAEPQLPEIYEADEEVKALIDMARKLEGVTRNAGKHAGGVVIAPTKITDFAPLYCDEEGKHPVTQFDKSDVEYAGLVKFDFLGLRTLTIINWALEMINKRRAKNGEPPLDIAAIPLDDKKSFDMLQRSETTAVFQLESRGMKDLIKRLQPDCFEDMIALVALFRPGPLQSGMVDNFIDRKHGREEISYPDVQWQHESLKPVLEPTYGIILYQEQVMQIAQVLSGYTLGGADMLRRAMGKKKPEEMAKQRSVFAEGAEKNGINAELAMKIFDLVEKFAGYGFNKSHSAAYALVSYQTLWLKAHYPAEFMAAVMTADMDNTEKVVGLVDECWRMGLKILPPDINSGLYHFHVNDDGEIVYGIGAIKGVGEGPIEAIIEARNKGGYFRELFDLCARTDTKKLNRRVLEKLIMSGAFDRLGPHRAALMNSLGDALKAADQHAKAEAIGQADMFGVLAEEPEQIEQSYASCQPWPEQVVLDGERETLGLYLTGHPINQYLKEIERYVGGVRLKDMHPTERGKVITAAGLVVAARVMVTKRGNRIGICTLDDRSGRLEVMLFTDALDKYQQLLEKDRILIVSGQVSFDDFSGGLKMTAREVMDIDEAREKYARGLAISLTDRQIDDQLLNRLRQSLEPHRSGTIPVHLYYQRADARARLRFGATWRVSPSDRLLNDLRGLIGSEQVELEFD

Sequence of DnaX tau subunit (P06710 2-643): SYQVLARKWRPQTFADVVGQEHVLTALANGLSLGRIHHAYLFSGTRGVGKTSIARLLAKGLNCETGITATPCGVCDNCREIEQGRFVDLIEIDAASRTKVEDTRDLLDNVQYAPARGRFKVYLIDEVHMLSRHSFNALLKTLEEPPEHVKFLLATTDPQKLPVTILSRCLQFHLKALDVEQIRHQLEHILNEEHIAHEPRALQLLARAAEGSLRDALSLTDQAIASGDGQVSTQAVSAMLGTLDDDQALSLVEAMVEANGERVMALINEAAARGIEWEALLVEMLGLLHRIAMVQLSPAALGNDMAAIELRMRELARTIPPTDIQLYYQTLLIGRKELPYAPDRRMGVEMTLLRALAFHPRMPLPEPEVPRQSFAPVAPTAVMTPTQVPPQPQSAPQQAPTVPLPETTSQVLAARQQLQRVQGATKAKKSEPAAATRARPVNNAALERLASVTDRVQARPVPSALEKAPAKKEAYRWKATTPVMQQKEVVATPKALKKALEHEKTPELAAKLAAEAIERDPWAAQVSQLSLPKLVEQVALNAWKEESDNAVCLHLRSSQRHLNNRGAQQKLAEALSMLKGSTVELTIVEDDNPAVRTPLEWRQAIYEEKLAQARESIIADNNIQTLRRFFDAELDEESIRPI

DnaX tau subunit (from UniProt P06710)
Kd: 0.07 nM
